Laboratory results: the DeepSol protein solubility set

experiment: soluble on expression in E. coli; label from the status in PepcDB or PDB records

| Sequence | soluble on expression in E. coli |
| --- | --- |
| MRVYDMHVHLHEYSDREVEEILDADKSLVVVAVSDDLESAWRTLDLWHTFGGRVVPCLGFHPWNVREGRVWEAWEVLRLAYRYGVPCLGEVGLDRRFVDEYTWRVQNEVFDAFVQLAEDMGVMLNIHAPDAWKHVAHRIGWTSRARFMYHWYTGPATLPRALPEGRVWFSINSAIRVQEKSVRVAREIPLRSLVVESDGPYNYRGLRLSPLMVRETVKLVAEARGEDPGRLMEAISLNSERLLGLL | not soluble |
| MSLVPRIAVLGCGHWGGNHIRTLQSLRALAAVSDVDSDRAASFASLYGVDAVAPDDLFTRRDIDALVLALPPQFHTENVLRAVKNGKDVLVEKPIALDVVDAECQVQAAREYGRILMVGHILRFHPAFEKISELVENGELGDVCYIYSHRLGFGKFHTQSDALWDLAPHDLSMILALTGCEPSEVRGEGAAVIDQCSDFAHIHMAFPNGIRSHLFASRLSPYRERRLMVVGTKAMLVFDDMEPWSRKVAFHPFAVWKENQEWAFSTDELSYINIYEDLPLTCELKHFLHCIETRQSPRTNGDDALAILRILTAAGVNYQKEGHHHHHH | soluble |
| KCPRCGKSVYAAEKVMGGGKPWHKTCFRCAICGKSLESTNVTDKDGELYCKVCYAKNF | soluble |
| NDRHIRHDITRPLPFADNSVDAFQAEDVLEHIAYDRIVPVLNEIHRVLKPGAVFRLSVPDYRCDILDARTEKDATGAPVFDPGGGGTRENPGHAWFPRYETVKTLVEKSNFGTAGEISFLHYYDEHNLPAMREIDYAKGFIQRPPDHDPRVQTPYRPMSLVVDLTKRDVRIFSSFNNSASHA | not soluble |
| MGSDKIHHHHHHMKTYDWIVVGGGMTGAVLAYELVKTGFSVLLLEKDAVAENATRYSYGGLAYWSGSTPLTRQLCQEARDRYNILPQELDADIELRELDLLLTIPADSDPQVTAELYAQCAVPPCLLSVPEACELELLLNPGAIAGALTVKHGHIHPQKTVQAYIQAFLRAGGELQIGEVSQVTSGGVKTTTVTYHSANVVVCAGGLSRRLLKSVGVSIKVYFTHAEIIETPPVDLRLNTLVMPANLQRFKLESTSTEVDELWNKPGNQLAPPILDAGAIQFLDGSLRLGQISRVLTDVDAYINHEESEDWLRQSISHILPILGNLPGNWHHCLVAFSSNSLPVIGVISELPGVHIFSGFSNPLVLIPPLAQRFAKFLSGTEDDIIPQFSDFLILTGS | not soluble |
| MGSDKIHHHHHHMSHPEPYFQCNDPALSPAERANWIAVLPLGAHEQHGPHLPFETDTIIAQGVVDRLILALPDTLPVTFLPVEPVGYSVEHMDVFGTRTLTFNEAVERWLGIAETLSGQGIRKLMMLNAHGGNSPLMTVVATEARIRFSMLAVATSWTRFGQPDGLIRPEDKAIDIHGGDIETSVMLALRPDLVAMDKAQNFSSRQSEFAARFTHLRAYGPHAFGWKMADLNPLGVAGNASVATAEKGENLLSHAVHGLVELLWDIHDFDIEKAFELPPHSSYMG | not soluble |
| MGSDKIHHHHHHMIRVLVLYFTRGGHTAKIASAIADQLKNRGAQVDLVDINSAAATRINWPDYQVVALGACVLYGTYDKTVFQFIEQHNQALSALPNSFFCVNVVARNPEKRIPENNKYLQKFIALSPWTPADLKIIAGKVDYPSWPWYDRLAIQLIMKMTKGPTDPKSVIDYTDWEDVKIYADHLLDLTEVTATT | not soluble |
| MSQLDLLNIVHRPRRLRRTAALRNLVQENTLTVNDLVFPLFVMPGTNAVEEVSSMPGSFRFTIDRAVEECKELYDLGIQGIDLFGIPEQKTEDGSEAYNDNGILQQAIRAIKKAVPELCIMTDVALDPFTPFGHDGLVKDGIILNDETVEVLQKMAVSHAEAGADFVSPSDMMDGRIGAIREALDETDHSDVGILSYAAKYASSFYGPFRDALHSAPQFGDKSTYQMNPANTEEAMKEVELDIVEGADIVMVKPGLAYLDIVWRTKERFDVPVAIYHVSGEYAMVKAAAAKGWIDEDRVMMESLLCMKRAGADIIFTYYAKEAAKKLR | soluble |
| MSLESIKVGMIGYKFMGKAHSHAYRDLPMFFPDHLRPEMKVICGRNPEGVAQAASQYGWEEYTTNWKDLIRRDDIDLIDINAPSDVHKEITLAAAQAGKHIFCEKPLALTLQDSRHMLEAVEAAGVKHMVGFNYRFTPAVLLAKKLIAEGRLGDIYHFRAWFLQDWIVAPDFPLVWRLQKDIAGSGAHGDLGAHLIDMAHFLIGDITEVIGMNETFIKERPLPTEMTGLSGRGSNDHTVPKGPVTVDDATLFMARFANGALGSFEATRFATGHRSTNSFEINGSKGSVIFDFERLNELQVYFTDDQDDVQGFRRVLATDGAHAYSDRWWPAGHTIGYEHTFIHEIAELMESLQEGRQPVPNFKDGVKCQQVLEAVDLSIAKREWIQVSEGHHHHHH | soluble |
| SGNLDDNKFTWVIKNVPTLNSDMLFSNYFVIGGCSWRVVAHSKENNFKESLSLTLIVAEDSAQKMGCGWSRYAKIIFTLVNQISEILSQRIETMFDQKSSVFSSETMFSIGKFDEHFAGFIVNGEIKIVVEFLEIIDKLVLSKESNPPFKKTKLNNDGEVSKDLIREVPVIMESIVVNGFHVLPSQVEFVKRIFEKHPDVAKEFRPTNRIVKTAYMNVLLSLIETLRQSPREISKNDLDGACGLLRSMKEAGFKLDWLEKKLNEVLEKKEKEESYETRMREIEEEMKDLKAKALDVGAPLRLDDVV | not soluble |
| MGSDKIHHHHHHMNLNPIINNFQRPIRKVQICCILIFSCAACSLNIPYENQYSDPDAITTVTAARELLASAYDAIPKPEFSLSVLSDDFQPTFLINLNADLNNLYKWHPKPMEDLSNSLWEKYYSAIAIANTVLERIHYVSPISDSDKQELQCIVSEAKTLKAYCYFNLLRLFAPTYPEGPEKDGIILKERFELAFLKRSSISECVNAIRQLLTEAVTVDNRPSQVYWFSRQSAYYLLAALELYAENYDKAEEYALKILSSTNAYNVLAPVHYKKLWEQEPCEECIFSLHTTNSYYTDMNYERKKGDYFTINSTLTQLYTANDIRYEATVYPQEMPGESIGETLPVLYLGKYNKQNWNYKPIQYINKLRVSGICFILAEAYCQDQKGHDALALEVINNYLAQREAPLLDTSLSGAPLLKAILQEKWKEFAGEGERYFDLKRYRKSLLSDWNLSATMKNKPIKPDDYRWLFPIPKGEYLYNENISQNAGWTKVEK | not soluble |
| MGSDKIHHHHHHMGTKKNFVLDTNVILHDYNCLKNFQENDIYLPIVVLEELDKFKKGNEQINYNAREFVRELDLITDDSLFTHGAPLGEGLGKLFIVTGDSEAPKVHESFPARKPDHQILAVAEYLARKYPKMKNILVTKDVNLRMKARSIGILCEDYITDKVVNVDIFEKSNEVFENIEPDLIDRIYSSREGLDISEFDFKDIIRPNECFILKSDRSSVLARYNPFTHTVCRVNKTKNYGIEPRNAEQSFAFEILNDPDIKLVALTGKAGTGKTLLALAAALGKLTEYKQILLARPIVALSNKDLGFLPGDATEKVAPYMQPLFDNLNVIKRQFASNSTEVKRLEDMQKSEQLVIEALAFIRGRSLSETYCIIDEAQNLTPHEIKTIITRAGEGTKMVFTGDIQQIDQPYLDSQSNGLVYMIDRMKDQNLFAHVNLVKGERSELSELASNLM | not soluble |
| MSGSHHHHHHSSGIEGRSEVVMENVTAFWEEGFGELFEKAKQNNNNRKTSNGDDSLSFSNFSLLGTPVLKDINFKIERGQLLAVAGSTGAGKTSLLMMIMGELEPSEGKIKHSGRISFCSQFSWIMPGTIKENIIFGVSYDEYRYRSVIKACQLEEDISKFAEKDNIVLGEGGITLSGGQRARISLARAVYKDADLYLLDSPFGYLDVLTEKEIFESCVCKLMANKTRILVTSKMEHLKKADKILILHEGSSYFYGTFSELQNLQPDFSSKLMGCDSFDQFSAERRNSILTETLHRFSLEGDAPVSGGGGSGGGGSGGQMTVKDLTAKYTEGGNAILENISFSISPGQRVGLLGRTGSGKSTLLSAFLRLLNTEGEIQIDGVSWDSITLQQWRKAFGVIPQKVFIFSGTFRKNLDPYEQWSDQEIWKVADEVGLRSVIEQFPGKLDFVLVDGGCVLSHGHKQLMCLARSVLSKAKILLLDQPSAHLDPVTYQIIRRTLKQAFADCTVILCEHRIEAMLECQQFLVIEENKVRQYDSIQKLLNERSLFRQAISPSDRVKLFPHRNSSK | soluble |
| MKLAYWMYAGPAHIGTLRISSSFRNVHAIMHAPLGDDYFNVMRSMLERERNFTPVTTSVVDRNVLARGSQEKVIDNILRKDTEERPDLIVLTPTCTSSILQEDLQNFVERAKESAQCDVLLADVNHYRVNELQAADRTLEQIVRFYLDRAQRQGTLPSQRTEQPSVNILGMTTLGFHNRHDTTELQRLMADLGITVNAVIPAGASVEELQHLPRAWFNLVPYREVGLLTAQYLQDTFDQPMVAIAPMGITATADCIRQIQQVLNQQGAAVDFEPFIDRQTRFASEAAWFSHSIDCQNLTGKRAVVFGDNTHAAAFTKILSREMGIHVVLAGTYCKHDADWFEAEVAGYCDRVLISDDHNAIADAIAELEPAAIFGTQMERHVGKRLNIPCGVIAAPVHIQNFPVGYRPFVGYEGANQIVDLVYNSFTLGMEDHLLEIFGGHDTKEVLTKTVSAGSDLDWKPDGLTELNRIPGFVRGKVKRNTEKYAREQGLTAITAEVLYAAKEALGALEHHHHHH | not soluble |
| MAEKLGPEKRHAFVHNGQKVFEWDQTLEEVNMYIELPKGVPTKLFHCAIQATHVEVGIRGNPPYLNFYICGSYFLYELSIQFSEQFDEWTPSSEDGEMHITLQKREKGKTWSSPIQGQGSLDPYAADQEQKRLMLQRFQEENPGFDFSQAQFTGTCPDPRTFMGGIRSD | soluble |
| MPANARSHAVLTTESKVTIRGQTTIPAPVREALKLKPGQDSIHYEILPGGQVFMCRLGDEQEDHTMNAFLRFLDADIQNNPQKTRPFNIQQGKKLVAGMDVNIDDEIGDDE | soluble |
| MSLDNAMRNIFNGMMTTTSPASFETATRTGVVGGSFSYRTTNVNTNLVSMSFPKASVGCNGIDVFLGSFSMINGDQLVQVARGIAQGAAIYAFNVAVSAICADCAATINDIQNKLQALNKFAKDSCNATYSFLTENVGPPSQFANAVSSGPASMLGTLNGLLPDFGSSMTKSPETVTSQVKAKDPEEFAEKFSGNLFYMSFMDIDKGSMNIGGVTELSGYRLAEQLMSLVGTVIINWDAKGEKAGMEVRPSTMTVSDFIMGPPAGGSIKMLKCSPAPDPASARKSQCLVMSEVTDGGFKGLKDTISDLLIQVQTKAISDVRISDDELRIISYIGIPTILDSLQTFDVPEGYAYIQDISAIAATSLVINMLRQVEAKISAMNIPSESLSGRRQDLTRLSENLTNQVKAAYELTRSQVGNSSDVISAWDDRRLKRKAFMESLRGTGNEGHHHHHH | not soluble |
| SNAMLTFYEYPKCSTCRRAKAELDDLAWDYDAIDIKKNPPAASLIRNWLENSGLELKKFFNTSGQSYRALGLKDKLHQLSLDEAANLLASDGMLIKRPLLVKEGKIVQIGYRTAYEDLDF | soluble |
| MDQNRGSDVGFAVPMLPVNYASATQKMSTLASTSSAGASSSTGSSNQQQQQAAAVIRRRRFSTAKIQPTRIKKVMQSDEDIGRMVQSVPVSIGRAMEHFAEKFLQAAAEATQFTSSKTLNPQHMKQAVLNTPHFSFLESVFKDVALPQQASELNTARTGMTLRGQQMLQEQQNSDFASAILANAQMQMMQMDQQALKQEDGTISPYLVDPQSPAAPLPLYLQGIPSNYPVVQELTATVPLSPSTPTTQLVNGMLGMLKYSKKDSEGQRLTGLKRASTDGDGEDRPKRGRPKKLKPEKCIDDDLYEEASRNIAKEDKDRELMPPPALPIGRP | not soluble |
